In the series the target is TATA binding protein (TBP) (UniProt P20226). Briefly: fluorescence (FAM/BHQ transcription factor beacon titration). Conditions: 5 mM MgCl2; no depletant; value stated in text next to ref 35, may come from it; internal BHQ after the T at position 20; 50 mM sodium phosphate pH 7.0, 150 mM NaCl, 5 mM MgCl2, 25 °C; 10 nM labeled TF switch.

For 1 sequence, Kd results are on record in article PMC3188500.

As usually defined, the Kd is the constant that tells how readily two partners part at equilibrium. Read a high Kd as lower affinity.

UniProt P20226, sequence (P20226 whole entry): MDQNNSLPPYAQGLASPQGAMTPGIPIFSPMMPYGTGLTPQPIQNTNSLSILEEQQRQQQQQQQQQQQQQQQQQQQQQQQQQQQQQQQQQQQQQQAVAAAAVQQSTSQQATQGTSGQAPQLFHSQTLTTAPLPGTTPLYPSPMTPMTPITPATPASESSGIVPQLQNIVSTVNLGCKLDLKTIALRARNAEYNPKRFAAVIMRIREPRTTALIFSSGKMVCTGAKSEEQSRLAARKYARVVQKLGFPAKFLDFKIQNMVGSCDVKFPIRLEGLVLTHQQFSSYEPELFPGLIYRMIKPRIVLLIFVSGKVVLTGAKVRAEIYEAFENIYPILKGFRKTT

In turn, “TACTTTTATATAAATAAGTTGTGATTTTTATATATTTCAC [TFprobe (transcription factor beacon/switch)]” came in with a Kd of 45 nM.
